From the RNAGym collection of RNA variant scans (doi:10.7554/elife.80360) come the findings set out here.

The chains are these.
B1: HDV Ribozyme (parent)
chain: GGCCGGCAUGGUCCCAGCCUCCUCGCUGGCGCCGGCUGGGCAACAUUCCGAGGGGACCGUCCCCUCGGUAAUGGCGAAUGGGACCCA

In the series the parent is B1. The series can be described thus: self-cleavage, relative activity (ratio to wild type); higher = more cleavage; co-transcriptional.
As to G50C G82A, the self-cleavage was determined as 0.364.
In the case of G50C G82U it was 0.217; in that of C49U C57A, 1.07; in that of G52C C64U, 0.964.
Regarding A51G C57A, the self-cleavage worked out at 0.877.
Consider G52A G54A, for which the self-cleavage amounted to 0.9.
Turning to G52A G54U, the self-cleavage is 0.815.
In the case of G52C G53A it was 0.733.
For the variant G52C G76A, the self-cleavage is 0.976.
Take G53A C57G: the self-cleavage was 0.992.
Under G53C C64G stands 0.268.
Under G50C A78G stands 0.584; under G50C A78C, 0.188; under A51C G67C, 0.886.
As for G52U G80A, the self-cleavage was found to be 0.528.
For the variant G52U G80C, the self-cleavage was determined as 0.241.
Take G52U U65C: the self-cleavage worked out at 0.658.
As to G53A C84U, the self-cleavage stood at 0.777.
In the case of C49G U65C it was 0.675; in that of A51G G67U, 0.65; in that of G50A G81U, 0.281.
Under G50A G81A stands 0.415.
Under G50A G81C stands 0.225; under C49U A56U, 0.973; under A51C C75A, 0.0449.
Consider G50U G54U, for which the self-cleavage was 0.668.
In the case of G52C C58A it was 0.796.
In the case of G50A A56G it was 1.15; in that of G50A A51G, 1.03; in that of G52A U65A, 0.954.
Under G52A G81U stands 0.244; under G50U G76U, 1.04.
As to G53A G80C, the self-cleavage is 0.351.
Under G53A G76U stands 1.11.
In the case of G53A G76A it was 1.16.
Take C49A G81A: the self-cleavage was 0.242.
In the case of C49A G81C, the self-cleavage was determined as 0.189.
On to A51U G54A, for which the self-cleavage was 0.973.
With G50C G68U, the self-cleavage came to 0.597.
As to G50C G68C, the self-cleavage was 0.249.
As for A51G U72A, the self-cleavage turned out to be 0.665.
Under C49U A77C stands 0.469; under A51G C84A, 0.698; under G52U U72A, 0.496.
Turning to G52U A71G, the self-cleavage stood at 0.901.
In the case of G52A C57A it was 0.963.
Turning to G52C A78G, the self-cleavage amounted to 0.787.
Under G52C A78U stands 0.315; under G52A G74U, 0.561.
Under G52A G74C stands 0.133.
In the case of G50U G67U it was 1.02; in that of G52U G81U, 0.429; in that of G50C C85U, 1.09.
Take G50C C85G: the self-cleavage was 0.831.
For G53A A77U, the self-cleavage was found to be 0.483.
Regarding C49G C84A, the self-cleavage amounted to 0.652.
In the case of C49G C84G, the self-cleavage stood at 0.297.
C49U U69G: the self-cleavage was 1.16.
In the case of C49U U69A, the self-cleavage was determined as 0.95.
In the case of C49G G50U it was 0.47.
Under C49U G53U stands 1.02; under C49U A83G, 0.883.
Take C49U A83C: the self-cleavage was determined as 0.615.
G53A C85G: the self-cleavage worked out at 0.923.
In the case of A51G G52A it was 1.
In the case of A51C U65C it was 0.942; in that of C49G G73U, 0.322; in that of C49U C86U, 0.882.
C49U C86G: the self-cleavage was 1.16.
For G50A G55U, the self-cleavage was 1.11.
Under C49G C75U stands 0.201; under A51U G80A, 0.344; under G50U U65C, 0.791.
For the variant G50U U65A, the self-cleavage was 0.981.
Under G52C A70G stands 0.702; under G52A A71C, 0.744; under G50C G54C, 0.32.
Under C49U G81A stands 0.378; under G52C C62U, 0.987; under A51G C75U, 0.217.
As for G50U G73A, the self-cleavage stood at 0.634.
Turning to C49A U60C, the self-cleavage is 0.78.
In the case of C49G U79C it was 0.631; in that of G52C U65G, 1.04.
For the variant A51U G52A, the self-cleavage was determined as 1.15.
As to A51C G53C, the self-cleavage came to 0.196.
With C49G A71U, the self-cleavage worked out at 1.04.
In the case of C49G A71G it was 0.72; in that of C49U C84A, 0.786.
As for A51G G55C, the self-cleavage stood at 0.481.
Regarding G52C U79G, the self-cleavage was determined as 0.475.
In the case of G50A A71C it was 0.633.
In the case of A51G G68C it was 0.831; in that of A51G G68A, 0.901; in that of G52A G76A, 1.05.
Under G52A G76C stands 1.24; under G50U A77C, 0.499.
In the case of G52A C86A, the self-cleavage is 0.9.
Under G52A A56C stands 1.11; under A51G U65C, 1.26.
In the case of A51G A78U it was 0.156; in that of C49G C63G, 0.475; in that of C49G C63U, 0.815.
In the case of G53C C86A it was 0.866; in that of G50C C61A, 0.865; in that of G52A U69A, 1.05.
Turning to A51U U79C, the self-cleavage is 0.49.
Consider A51U U79A, for which the self-cleavage was determined as 1.09.
Turning to G52C C61G, the self-cleavage turned out to be 0.886.
Take G52A G53A: the self-cleavage amounted to 0.89.
Under A51U G74A stands 0.288.
Consider G53C A56U, for which the self-cleavage turned out to be 1.11.
Turning to G53C A56C, the self-cleavage came to 1.14.
As for G52A C85G, the self-cleavage is 1.
A51C A70U: the self-cleavage is 1.15.
In the case of A51C A70G it was 0.849.
In the case of G53A A71G it was 0.941; in that of G50C A83C, 0.317; in that of G50U G52C, 0.803.
Consider C49U A51G, for which the self-cleavage turned out to be 1.01.
As to C49G A87G, the self-cleavage came out at 0.969.
In the case of C49G A87U it was 0.913; in that of G50C U72C, 0.494; in that of A51U U60A, 1.14.
Under A51C G59U stands 0.762.
A51C G59C: the self-cleavage turned out to be 0.807.
Take G50C G55A: the self-cleavage is 0.959.
In the case of G50C G55U it was 0.776; in that of C49G G74A, 0.132.
G52U G73A: the self-cleavage is 0.546.
Under G53A G82C stands 0.246; under G53A G82U, 0.359.
Under A51C G55A stands 0.873; under G53C C85A, 0.955.
Turning to G53C C85G, the self-cleavage is 1.01.
In the case of G53A U79G it was 0.554; in that of G50A C66U, 0.989.
On to G50A C66G, for which the self-cleavage was 1.05.
On to G50A G76U, for which the self-cleavage was found to be 1.01.
In the case of C49G C86G it was 0.587; in that of A51C G54C, 0.787.
Under A51C C64U stands 0.9.
A51C C64G: the self-cleavage turned out to be 1.09.
For A51U U65G, the self-cleavage is 1.3.
C49U A78C: the self-cleavage was 0.188.
In the case of C49U C66G it was 0.892; in that of G50C G73A, 0.407; in that of G52A G55A, 0.893.
In the case of C49G C66G it was 0.665.
With G50U C64G, the self-cleavage was determined as 0.703.
Under A51U C66U stands 1.07; under A51U G67U, 0.816; under A51U G67A, 0.78.
Under G52A C84U stands 0.691; under G52A C84G, 0.764; under G52U A77U, 0.743.
With C49G G52C, the self-cleavage is 0.287.
As for C49G G52A, the self-cleavage was determined as 0.543.
In the case of G50U U60G it was 0.831; in that of A51C C62G, 0.151.
Take G50C U65G: the self-cleavage is 0.453.
Consider G50C U65C, for which the self-cleavage turned out to be 1.05.
Regarding G50A C86A, the self-cleavage amounted to 0.931.
For the variant G50A C86U, the self-cleavage worked out at 1.06.
For the variant G53A G54U, the self-cleavage was 0.962.
G52A U60G: the self-cleavage worked out at 0.897.
For the variant G52A U60A, the self-cleavage stood at 0.975.
